In patent US20020081614, “Functional genomics using zinc finger proteins” (Sangamo BioSciences, Inc., published 2002) one finds activity and activity (fold activation) data, which are given here for five molecules.

Data set [1] has as its system M6-111S ZFP-KRAB (pcK-M6-111S, printed pcK-M6-11S) (synthetic construct). The data set can be described thus: cell_activity. Particulars: cotransfected luciferase reporter; about 40% repression of endogenous VEGF. A general note: A reporter such as luciferase makes a cellular process visible.
In data set [2] the test system is M6-111S ZFP-VP16 (pcV-M6-111S) (synthetic construct). The data set can be described thus: cell_activity. Particulars: 293 cells; target printed ATGGGGGTC in Table 1 but ATGGGGGTG in p236 and p241.
Data set [3] deals with M6-2009S ZFP-VP16 (pcV-M6-2009S, also written M6-2009A) (synthetic construct). Nature of the data set: cell_activity. The note with it: 293 cells; reporter pGLPVFH, table title endogenous VEGF; location -363.
The subject of data set [4] is M6-1878S ZFP-VP16 (pcV-M6-1878S) (synthetic construct). Nature of the data set: cell_activity. The note with it: 293 cells; reporter pGLPVFH, table title endogenous VEGF; location -536.
Data set [5] concerns M6-120S ZFP-VP16 (pcV-M6-120S) (synthetic construct). Nature of the data set: cell_activity. The note with it: 293 cells; reporter pGLPVFH, table title endogenous VEGF; location -2243.
Another data set concerns the target T1, VF471A-VP16 (pcV-VF471A) (synthetic construct).
T1 chain: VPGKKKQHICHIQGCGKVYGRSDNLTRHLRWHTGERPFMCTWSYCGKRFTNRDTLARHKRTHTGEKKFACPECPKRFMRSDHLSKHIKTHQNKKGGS
The data set can be described thus: cell_activity; luciferase reporter in 293 cells, vs pcV-RAN. The procedure: All plasmid DNA was prepared using Qiagen plasmid purification kits. The human embryonic kidney 293 cells were seeded into each well of a 6-well plate with a density to reach approximately 70% confluence the next day. Cells were co-transfected with 50 ng effector DNA (ZFP-expression plasmid), 900 ng reporter DNA and 100 ng pCMV-LacZ DNA using either Lipofectamine (GIBCO-BRL, MD) or GenePORTER (Gene Therapy Systems Inc, CA) transfection reagent. The co-expressed β-galactosidase activity was used a control to normalize the luciferase activity. Cell lysates were harvested 40 to 48 hours after transfection. Luciferase assays were performed using the Dual-Light Luciferase and β-galactosidase Reporter Assay System (Tropix, MA).
When the VP16 domain was replaced with a peptide, which has no transcription regulation activity, this zinc finger protein (pcV-VF471A-cat) lost its activity of trans-activating the luciferase gene. […] Therefore, the DNA binding domain (VF471A ZFP) combined with the regulation domain (VP16) in this example were able to turn on the gene at an appropriate target sites.

Take “ATGGGGGTG (double strand) [M6-111S site]”: in data set [1], the activity is 80 % repression. Besides, the activity (fold activation) in data set [2] is 4.1.
As to “GAAGGGGGC (double strand) [M6-2009S site]”, the activity (fold activation) in data set [3] was 4.5.
For “GAGTGTGTG (double strand) [M6-1878S site]”, the activity (fold activation) in data set [4] was 4.2.
“GGGGGTGCC (double strand) [M6-120S site]” showed an activity (fold activation) in data set [5] of 13.8.

B1: reporter with three tandem M6-1892S sites (pGLP-VF471x3) (dsDNA)
DNA 1: GGGGTTGAG
DNA 2: CTCAACCCC
Take B1: in the data set with VF471A-VP16 (pcV-VF471A), the activity stood at 8 fold activation.
